Measured values published in paper PMC5033702.

Columns and labels:
DDX5 WT (MBP-DDX5-GST) = DDX5 WT (MBP-DDX5-GST) (UniProt P17844 1-614); experiment: fluorescence anisotropy
[1] = biological target: DDX5-K144N (MBP-DDX5-GST) (UniProt P17844 1-614, K144N); experiment: fluorescence anisotropy
Sequence of DDX5-K144N (MBP-DDX5-GST) (P17844 whole entry K144N): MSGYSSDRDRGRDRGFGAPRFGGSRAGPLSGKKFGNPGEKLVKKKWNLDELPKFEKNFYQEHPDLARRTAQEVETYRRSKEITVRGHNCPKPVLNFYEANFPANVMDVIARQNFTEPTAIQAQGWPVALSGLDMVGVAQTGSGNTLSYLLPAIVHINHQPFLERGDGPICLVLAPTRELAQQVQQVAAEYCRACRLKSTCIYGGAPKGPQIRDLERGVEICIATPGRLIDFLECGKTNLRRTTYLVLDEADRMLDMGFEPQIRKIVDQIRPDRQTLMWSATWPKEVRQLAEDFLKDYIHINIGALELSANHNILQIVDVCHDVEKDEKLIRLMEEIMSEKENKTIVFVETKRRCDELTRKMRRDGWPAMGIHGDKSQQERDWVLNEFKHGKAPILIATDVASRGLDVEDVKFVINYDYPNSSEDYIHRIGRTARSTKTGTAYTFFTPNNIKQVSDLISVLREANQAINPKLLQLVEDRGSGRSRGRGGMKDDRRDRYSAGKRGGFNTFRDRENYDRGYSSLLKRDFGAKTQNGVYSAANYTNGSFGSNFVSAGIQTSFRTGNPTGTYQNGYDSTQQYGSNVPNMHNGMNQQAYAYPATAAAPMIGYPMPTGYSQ

Sequence of DDX5 WT (MBP-DDX5-GST) (P17844 whole entry): as the sequence (P17844 whole entry K144N) above, with N144K counted along it

B1: 6-FAM ssRNA 16-mer (ssRNA)
RNA: AGCACCGUAAAGACGC
Question: Does B1 bind (DDX5 WT (MBP-DDX5-GST))?
Answer: binds

Question: And the binding signal [1]?
Answer: ~4 fold reduced affinity vs WT (nearly 4-fold)
